Measured values reported in US20250147035A1, “METHODS FOR DETECTION OF POST-TRANSLATIONAL MODIFICATIONS” (Quantum-Si Incorporated, priority 2023, published 2025).
Read-outs that look alike come from different tables or passages of the source. Primed or numbered codes have the meaning given here. Where no end group is shown, it is not given here. [ ]: non-standard residue; d: D form. pT = C[C@@H](OP(=O)(O)O)[C@H](N)C(=O)O; pS = N[C@@H](COP(=O)(O)O)C(=O)O; Biotin′ = not defined here

T1: pSAKLDEESILKQ-Biotin
T1 peptide: [pS]AKLDEESILKQ-{Biotin′}

T2: TAKLDEESILKQ-Biotin
T2 peptide: TAKLDEESILKQ-{Biotin′}

T3: pTAKLDEESILKQ-Biotin
T3 peptide: [pT]AKLDEESILKQ-{Biotin′}

T4: p…-Biotin
T4 sequence (peptide, phosphothreonine at 1; C-terminal Biotin): TAKLDEESILKQ

T5: …-Biotin
T5 sequence (peptide, C-terminal Biotin): SAKLDEESILKQ

B1: PM19 (Human/RBM15) (other)
chain: MAPVASASPKLCLAWQGMLLLKNSNFPSNMHLLQGDLQVASSLLVEGSTGGKVAQLKITQRLRLDQPKLDEVTRRIKVAGPNGYAILLAVPGSSDSRSSSSSAASDTATSTQRPLRNLVSYLKQKQAAGVISLPVGGNKDKENTGVLHAFPPCEFSQQFLDSPAKALAKSEEDYLVMIIVRGFGFQI
B2: PM21 (Human/PHF3) (other)
chain: MTFLARLNFIWKGFINMPSVAKFVTKAYPVSGSPEYLTEDLPDSIQVGGRISPQTVWDYVEKIKASGTKEICVVRFTPVTEEDQISYTLLFAYFSSRKRYGVAANNMKQVKDMYLIPLGATDKIPHPLVPFDGPGLELHRPNLLLGLIIRQKL
B3: PM14 (Saccharomyces cerevisiae/RAD53) (other)
chain: MEDQDGKIQGFKIPAHAPIRYTQPKSIEAETREQKLLHSNNTENVKSSKKKGNGRFLTLKPLPDSIIQESLEIQQGVNPFFIGRSEDCNCKIEDNRLSRVHCFIFKKRHAVGKSMYESPAQGLDDIWYCHTGTNVSYLNNNRMIQGTKFLLQDGDEIKIIWDKNNKFVIGFKVEINDTTGLFNEGLGMLQEQRVVLKQTAEEKDLVKKLTQMMAAQRANQPSASSSSMSAKKPPVSDTNNNGNNSVLNDLVESPINANTGNILKRIHSVSLSQSQIDPSKKVKRAKLDQTSKGPENLQFS
B4: PM23 (Human/Scp1) (other)
chain: MAFEELRVQAENARLDMHFKLKEDHEKIQHLQEEYKKEVNDKENQVSLLLIQRTEKENKMKDLTFLLEESRDKVNQLEDKTKLQDENVKELNKKKDHLTSELEDTKMSLQRSMNTQKALEEDLQIATKTIYQLTEEKEAQMEEFNKAKTDHSFMVTELKATTCTLEELLRTEQQRLVKNED
B5: PM20 (Human/RB15B) (other)
chain: MQLGWNGLLVLKNSCFPTSMHILEGDQGVISSLLKDHTSGSKLTQLKIAQRLRLDQPKLDEVTRRIKQGSPNGYAVLLATQATPSGLGTEGMPTVEPGLQRRLLRNLVSYLKQKQAAGVISLPVGGSKGRDGTGMLYAFPPCDFSQQYLQSALRTLGKLEEEHMVIVIVRDTA
B6: PM10 (Human/MCPH1) (other)
chain: MSGRGKKPTRTLVMTSMPSEKQNVVIQVVDKLKGFSIAPDVCETTTHVLSGKPLRTLNVLLGIARGCWVLSYDWVLWSLELGHWISEEPFELSHHFPAAPLCRSECHLSAGPYRGTLFADQPAMFVSPASSPPVAKLCELVHLCGGRVSQVPRQASIVIGPYSGKKKATVKYLSEKWVLDSITQHKVCAPENYLLSQ

Tests used:
p[…]-Biotin [1] = test: Octet binding assay of PTM-specific affinity reagent candidates, pTQR peptide; conditions: fixed concentration of reagent
Procedure: This Example characterizes an exemplary phosphorylated threonine recognizer for use in methods of the disclosure. Octet binding assays at a fixed concentration of PTM-specific affinity reagent candidates were evaluated for binding with phospho-threonine, phospho-serine containing peptides (p[…]-Biotin; p[…]-Biotin; p[…]-Biotin), and control peptides without modifications ([…]-Biotin; […]-Biotin).

p[…]-Biotin [2] = test: Octet binding assay of PTM-specific affinity reagent candidates, pTA peptide; conditions: fixed concentration of reagent
Source text: (§1) This Example characterizes an exemplary phosphorylated threonine recognizer for use in methods of the disclosure.

pSAKLDEESILKQ-Biotin = biological target: T1, pSAKLDEESILKQ-Biotin; test: Octet (BLI), fixed reagent concentration;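 also: octet binding of candidate PTM-specific affinity reagents, each at one fixed concentration, to biotinylated phospho-Thr or phospho-Ser peptides, with unmodified biotinylated peptides serving as controls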
Procedure: (§2) Octet binding assays at a fixed concentration of PTM-specific affinity reagent candidates were evaluated for binding with phospho-threonine, phospho-serine containing peptides (p[sequence]-Biotin; p[sequence]-Biotin; p[sequence]-Biotin), and control peptides without modifications ([sequence]-Biotin; [sequence]-Biotin).

TAKLDEESILKQ-Biotin = biological target: T2, TAKLDEESILKQ-Biotin; test: Octet (BLI), fixed reagent concentration;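 also: octet binding of candidate PTM-specific affinity reagents, each at one fixed concentration, to biotinylated phospho-Thr or phospho-Ser peptides, with unmodified biotinylated peptides serving as controls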
Procedure: as §2

pTAKLDEESILKQ-Biotin = biological target: T3, pTAKLDEESILKQ-Biotin; test: Octet (BLI), fixed reagent concentration;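 also: octet binding of candidate PTM-specific affinity reagents, each at one fixed concentration, to biotinylated phospho-Thr or phospho-Ser peptides, with unmodified biotinylated peptides serving as controls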
Procedure: as §2

p…-Biotin = biological target: T4, p…-Biotin; test: Octet (BLI), fixed reagent concentration
…-Biotin = biological target: T5, …-Biotin; test: Octet (BLI), fixed reagent concentration
SAKLDEESILKQ-Biotin = test: Octet binding assay of PTM-specific affinity reagent candidates, SA control peptide; conditions: SA = […]-Biotin (control); fixed concentration of reagent
Source text: as §1

Molecule	Octet binding assay response, pTQR (p[…]-Biotin [1])	Octet binding assay response, pTA (p[…]-Biotin [2])	Octet binding assay response (pSAKLDEESILKQ-Biotin)	Octet binding assay response (TAKLDEESILKQ-Biotin)	Octet binding assay response (pTAKLDEESILKQ-Biotin)	Octet binding assay response (p…-Biotin)	Octet binding assay response (…-Biotin)	Octet binding assay response, SA (SAKLDEESILKQ-Biotin)	Octet binding assay response (p…-Biotin; pTA phosphothreonine peptide)	Octet binding assay response (p…-Biotin; pTQR phosphothreonine peptide)
PM16: Human/PLK1, SEQ ID NO: 16	2.1	1.7								
B1	1.0		0.1	0.2	0.3	1	0.1			
B2	0.5		0.2	0.2	0.3	0.5	0.1	0.1		
B3	1.0	1.1	0.2	0.1			0.2		1.1	1
B4	0.3		0.1	0.2	0.2	0.3	0.1			
B5	0.5		0.2	0.2	0.3	0.5	0.2			
B6	1.0		0.3	0.3	0.3	1	0.2	0.2		
